Article PMC4505066 (2015)
Residue numbers refer to the chain shown, from its start. Several values for one entry are separate records, joined by “and”; a condition that tells them apart may be missing. Equal values may be shown once. Read-outs that look alike come from different tables or passages of the source. No end group written: not given here.

T1: HDAC4 catalytic domain C751A
T1 chain: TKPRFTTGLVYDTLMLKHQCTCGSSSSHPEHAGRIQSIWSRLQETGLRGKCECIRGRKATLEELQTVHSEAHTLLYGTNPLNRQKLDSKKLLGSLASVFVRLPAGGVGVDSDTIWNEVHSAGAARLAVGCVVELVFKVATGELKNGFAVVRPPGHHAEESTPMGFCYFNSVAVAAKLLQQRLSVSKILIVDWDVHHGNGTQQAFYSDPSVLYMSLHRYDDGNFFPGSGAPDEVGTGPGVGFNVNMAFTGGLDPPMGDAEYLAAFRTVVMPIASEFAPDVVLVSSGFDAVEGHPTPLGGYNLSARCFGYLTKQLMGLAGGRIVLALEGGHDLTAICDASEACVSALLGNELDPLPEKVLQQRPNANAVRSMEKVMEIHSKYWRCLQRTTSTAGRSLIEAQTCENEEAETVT

T2: HDAC4 catalytic domain H675A
T2 chain: T1 chain with H28A, A104C

T3: HDAC4 catalytic domain C667A
T3 chain: T1 chain with C20A, A104C

T4: HDAC7 catalytic domain
T4 chain: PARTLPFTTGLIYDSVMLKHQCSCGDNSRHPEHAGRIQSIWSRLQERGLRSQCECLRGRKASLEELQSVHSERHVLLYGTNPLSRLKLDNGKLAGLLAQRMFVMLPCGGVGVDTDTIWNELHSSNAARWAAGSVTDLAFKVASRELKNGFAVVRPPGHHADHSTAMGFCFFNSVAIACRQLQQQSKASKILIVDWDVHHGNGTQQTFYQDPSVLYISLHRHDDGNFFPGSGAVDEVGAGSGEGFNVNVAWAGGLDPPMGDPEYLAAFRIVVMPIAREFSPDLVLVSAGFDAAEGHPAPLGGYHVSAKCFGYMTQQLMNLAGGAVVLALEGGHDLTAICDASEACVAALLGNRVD

T5: HDAC9 catalytic domain
T5 chain: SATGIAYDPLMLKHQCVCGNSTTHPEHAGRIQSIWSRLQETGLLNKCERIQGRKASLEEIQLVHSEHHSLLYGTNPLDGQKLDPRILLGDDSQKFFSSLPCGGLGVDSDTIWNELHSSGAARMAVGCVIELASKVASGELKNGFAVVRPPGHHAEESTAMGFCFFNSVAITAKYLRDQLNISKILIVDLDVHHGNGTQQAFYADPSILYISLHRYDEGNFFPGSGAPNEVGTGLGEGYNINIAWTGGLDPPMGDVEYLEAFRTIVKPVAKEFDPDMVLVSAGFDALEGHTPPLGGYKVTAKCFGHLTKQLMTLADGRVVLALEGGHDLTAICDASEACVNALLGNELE

T6: HDAC5 catalytic domain
T6 chain: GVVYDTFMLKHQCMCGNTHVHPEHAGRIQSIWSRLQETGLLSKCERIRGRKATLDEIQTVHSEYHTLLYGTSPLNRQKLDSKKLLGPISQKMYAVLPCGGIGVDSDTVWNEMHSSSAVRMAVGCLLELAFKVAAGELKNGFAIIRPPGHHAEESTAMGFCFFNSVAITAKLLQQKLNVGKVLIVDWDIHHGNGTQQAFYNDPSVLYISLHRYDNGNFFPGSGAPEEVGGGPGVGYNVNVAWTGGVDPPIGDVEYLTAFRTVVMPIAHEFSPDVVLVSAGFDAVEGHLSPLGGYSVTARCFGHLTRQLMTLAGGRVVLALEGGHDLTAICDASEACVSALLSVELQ

T7: full-length HDAC8 (UniProt Q9BY41 1-377)
T7 chain: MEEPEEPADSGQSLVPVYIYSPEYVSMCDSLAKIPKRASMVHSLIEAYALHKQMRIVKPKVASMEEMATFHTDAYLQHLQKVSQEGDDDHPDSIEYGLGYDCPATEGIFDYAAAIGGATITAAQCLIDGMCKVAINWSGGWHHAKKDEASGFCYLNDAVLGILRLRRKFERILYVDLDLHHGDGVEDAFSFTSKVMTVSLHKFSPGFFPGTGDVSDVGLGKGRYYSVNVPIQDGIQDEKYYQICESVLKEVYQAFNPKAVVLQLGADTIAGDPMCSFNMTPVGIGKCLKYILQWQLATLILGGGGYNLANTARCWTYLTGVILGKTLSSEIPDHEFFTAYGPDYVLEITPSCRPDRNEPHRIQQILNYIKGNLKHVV

B1: wild type GSI motif peptide (CPRPLKEGSITQGTPLKYDTG), SMRT amino acids 1450-1469 with an amino-terminal cysteine (peptide)
peptide: C(BODIPY‑TMR)PRPLKEGSITQGTPLKYDTG
B2: HDAC4 catalytic domain, wild type (domain or fragment)
chain: T1 chain with A104C

Legend:
[1] = biological target: T1, HDAC4 catalytic domain C751A; assay: FP
[2] = biological target: HDAC4 catalytic domain L728A (UniProt P56524 648-1033, L728A); assay: FP
[3] = biological target: T2, HDAC4 catalytic domain H675A; assay: FP
[4] = biological target: B2; assay: FP
[5] = biological target: T3, HDAC4 catalytic domain C667A; assay: FP
HDAC7 catalytic domain = biological target: T4, HDAC7 catalytic domain; assay: FP
[6] = biological target: B2; assay: FP
HDAC9 catalytic domain = biological target: T5, HDAC9 catalytic domain; assay: FP
HDAC5 catalytic domain = biological target: T6, HDAC5 catalytic domain; assay: FP
full-length HDAC8 = biological target: T7, full-length HDAC8; assay: FP
[7] = biological target: GSI motif peptide with a mutation to Pro-8 of the motif (UniProt Q9Y618, BODIPY-TMR coupled to the N-terminal cysteine); assay: FP; P8A peptide
[8] = biological target: T8, GSI motif peptide with a mutation to Gln-5 of the motif (UniProt Q9Y618, BODIPY-TMR coupled to the N-terminal cysteine); assay: FP; Q5A peptide
[9] = biological target: T9, GSI motif peptide with a mutation to Thr-4 of the motif (UniProt Q9Y618, BODIPY-TMR coupled to the N-terminal cysteine); assay: FP; T4A peptide
[10] = biological target: T9, GSI motif peptide with a mutation to …; assay: FP; T4V peptide
[11] = biological target: T8, GSI motif peptide with a mutation to …; assay: FP; Q5E peptide

HDAC4 catalytic domain L728A, sequence (P56524 648-1033 L728A): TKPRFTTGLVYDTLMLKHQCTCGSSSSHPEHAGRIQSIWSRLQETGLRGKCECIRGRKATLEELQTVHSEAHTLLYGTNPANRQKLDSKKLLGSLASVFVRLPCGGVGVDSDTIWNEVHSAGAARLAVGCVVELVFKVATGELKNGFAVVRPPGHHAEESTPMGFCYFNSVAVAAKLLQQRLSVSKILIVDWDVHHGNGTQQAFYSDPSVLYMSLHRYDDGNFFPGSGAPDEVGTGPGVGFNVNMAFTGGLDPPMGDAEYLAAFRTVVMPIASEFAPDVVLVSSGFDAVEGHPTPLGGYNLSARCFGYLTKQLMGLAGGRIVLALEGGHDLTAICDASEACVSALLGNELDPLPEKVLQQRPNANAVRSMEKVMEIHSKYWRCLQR

Kd [1]	Kd [2]	Kd [3]	Kd [4]	Kd [5]	Kd (HDAC7 catalytic domain)	Kd [6]	Kd (HDAC9 catalytic domain)	Kd (HDAC5 catalytic domain)	Kd (full-length HDAC8)	Kd [7]	Kd [8]	Kd [9]	Kd [10]	Kd [11]	Binder
> 1000 µM	4.59 µM	> 1000 µM	5.6 µM	> 1000 µM	4.44 µM	5.74 µM and 6.5 µM	8.34 µM	4.24 µM	> 1000 µM						B1
										47 µM	5.47 µM	14.4 µM	16.9 µM	17.7 µM	B2
